Read-outs that look alike come from different tables or passages of the source.
How the values were obtained:
native gel or EMSA = molecular target: the molecule itself; test: native gel or EMSA
IRF-3 WT = molecular target: T1, IRF-3 WT (UniProt Q14653 1-427); test: fluorescence anisotropy
T1 sequence: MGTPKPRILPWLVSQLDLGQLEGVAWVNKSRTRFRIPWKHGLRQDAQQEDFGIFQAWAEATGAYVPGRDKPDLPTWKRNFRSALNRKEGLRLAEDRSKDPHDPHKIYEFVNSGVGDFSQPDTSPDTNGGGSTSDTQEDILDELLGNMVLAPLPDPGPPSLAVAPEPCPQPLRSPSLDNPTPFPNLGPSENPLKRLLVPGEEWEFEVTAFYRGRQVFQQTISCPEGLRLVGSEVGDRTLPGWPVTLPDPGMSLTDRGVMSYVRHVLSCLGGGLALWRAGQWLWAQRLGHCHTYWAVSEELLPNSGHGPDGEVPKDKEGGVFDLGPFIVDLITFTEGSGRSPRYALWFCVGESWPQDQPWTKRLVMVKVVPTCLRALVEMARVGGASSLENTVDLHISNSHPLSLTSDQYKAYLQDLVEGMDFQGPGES

IRF-3 2D = molecular target: T2, IRF-3 2D (UniProt Q14653 1-427, S396D;S398D); test: fluorescence anisotropy
T2 sequence: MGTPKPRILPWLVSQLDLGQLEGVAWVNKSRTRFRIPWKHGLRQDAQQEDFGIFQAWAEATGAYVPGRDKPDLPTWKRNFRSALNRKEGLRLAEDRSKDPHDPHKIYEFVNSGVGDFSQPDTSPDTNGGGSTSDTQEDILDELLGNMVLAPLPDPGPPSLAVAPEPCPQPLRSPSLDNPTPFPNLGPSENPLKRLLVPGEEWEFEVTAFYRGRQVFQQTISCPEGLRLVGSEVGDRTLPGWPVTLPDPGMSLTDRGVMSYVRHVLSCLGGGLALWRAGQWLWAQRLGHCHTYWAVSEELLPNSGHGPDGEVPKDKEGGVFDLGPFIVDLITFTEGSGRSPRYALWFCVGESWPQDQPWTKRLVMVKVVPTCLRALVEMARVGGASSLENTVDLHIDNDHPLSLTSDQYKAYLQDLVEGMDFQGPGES

IRF-3 5D [1] = molecular target: T3, IRF-3 5D (UniProt Q14653 1-427, S396D;S398D;S402D;T404D;S405D); test: fluorescence anisotropy
T3 sequence: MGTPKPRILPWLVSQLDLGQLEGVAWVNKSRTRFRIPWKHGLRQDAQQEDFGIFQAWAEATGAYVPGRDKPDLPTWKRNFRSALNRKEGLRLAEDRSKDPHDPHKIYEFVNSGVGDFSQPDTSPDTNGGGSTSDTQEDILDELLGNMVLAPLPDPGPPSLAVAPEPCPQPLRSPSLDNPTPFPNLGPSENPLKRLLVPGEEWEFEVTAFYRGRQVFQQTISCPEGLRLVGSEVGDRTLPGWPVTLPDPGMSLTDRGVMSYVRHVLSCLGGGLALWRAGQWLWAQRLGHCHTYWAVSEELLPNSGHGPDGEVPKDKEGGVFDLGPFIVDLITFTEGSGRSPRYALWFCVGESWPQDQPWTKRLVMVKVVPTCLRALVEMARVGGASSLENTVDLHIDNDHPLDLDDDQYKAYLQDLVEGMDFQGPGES

IRF-3 5D [2] = molecular target: T3, IRF-3 5D; test: fluorescence anisotropy; remark: listed apart in the source

B1: IRF-3 5D phosphomimetic mutant (S396D, S398D, S402D, T404D and S405D) (natural protein)
chain: MGTPKPRILPWLVSQLDLGQLEGVAWVNKSRTRFRIPWKHGLRQDAQQEDFGIFQAWAEATGAYVPGRDKPDLPTWKRNFRSALNRKEGLRLAEDRSKDPHDPHKIYEFVNSGVGDFSQPDTSPDTNGGGSTSDTQEDILDELLGNMVLAPLPDPGPPSLAVAPEPCPQPLRSPSLDNPTPFPNLGPSENPLKRLLVPGEEWEFEVTAFYRGRQVFQQTISCPEGLRLVGSEVGDRTLPGWPVTLPDPGMSLTDRGVMSYVRHVLSCLGGGLALWRAGQWLWAQRLGHCHTYWAVSEELLPNSGHGPDGEVPKDKEGGVFDLGPFIVDLITFTEGSGRSPRYALWFCVGESWPQDQPWTKRLVMVKVVPTCLRALVEMARVGGASSLENTVDLHIDNDHPLDLDDDQYKAYLQDLVEGMDFQGPGES
stoichiometry N (native gel or EMSA): 2

B2: PRDI 13-bp (dsDNA)
DNA 1: GAGAAGTGAAAGT
DNA 2: ACTTTCACTTCTC
Kd (IRF-3 WT): 800 ± 17 nM | Kd (IRF-3 2D): 900 ± 15 nM | Kd (IRF-3 5D [1]): 1200 ± 20 nM

B3: PRDIII-PRDI 26-bp (dsDNA)
DNA 1: GCGAACTGAAAGGGAGAAGTGAAAGT
DNA 2: ACTTTCACTTCTCCCTTTCAGTTCGC
Kd (IRF-3 WT): 1230 ± 15 nM | Kd (IRF-3 2D): 1300 ± 15 nM | Kd (IRF-3 5D [2]): 5.8 ± 0.8 nM

— article PMC1920236 (Nucleic Acids Research, 2007)
